# Assay results taken from patent publication US20060009452A1, “Therapeutic targeting of PARC/CCL18 and its signaling in pulmonary fibrosis” (priority 2004, published 2006).
# “Also recorded” adds a separate entry of the source.
# B1: rhPARC: Recombinant human pulmonary and activation-regulated chemokine (CC chemokine CCL18), purchased from R&D Systems and Cell Sciences (protein)
# chain: AQVGTNKELCCLVYTSWQIPQKFIVDYSETSPQCPKPGVILLTKRGRQICADPNKKWVQKYISDLKLNA
# What was measured:
# lung fibroblasts = test: Collagen production, metabolic labeling with 14C-proline, PAGE and autoradiography; type: cell-based, human
# Procedure: Collagen Production Assays. Production of collagen was assessed using metabolic labeling with ^14C-proline and Western blotting with anti-collagen type I antibody. For metabolic labeling of collagen, fibroblasts were plated at 2×10^5 cells/well in 6-well plates (Costar, Cambridge, Mass.), in duplicates, incubated overnight in 3 ml/well of high serum medium, and then for 24 h in low-serum medium. After that, the culture medium was replaced with 1 ml/well of fresh low serum medium with or without added test substances and containing ^14C-proline at 1 μCi/ml (Amersham Pharmacia Biotech). After incubation for the desired periods of time, the cell culture supernatants were collected, rapidly frozen in liquid nitrogen and freeze-dried at −70° C. The pellets were dissolved in 100 μl of reducing Laemmli buffer per 1 ml of the cell culture supernatant, and the samples were electrophoretically separated in 7.5% acrylamide gels. Alternatively, samples were concentrated 10-fold by filter centrifugation on 30K Ultrafree-MC filters (Millipore, Bedford, Mass.). Fluorographic images were developed using EN[3H]ANCE autoradiography enhancer (NEN, Boston, Mass.). Gel images were acquired using Storm densitometer (Molecular Dynamics, Sunnyvale, Calif.), and the densities of the bands were analyzed with ImageQuant software (Molecular Dynamics). Dependence of collagen production by fibroblast cultures on the dose of PARC and duration of stimulation were evaluated using one-way ANOVA with post hoc testing.
# The identity of collagen bands was confirmed by sensitivity to pepsin and collagenase (both from Sigma) digestion. For pepsin digestion, 2 μl of 1 Macetic acid were added to 40 μl of concentrated fibroblast culture supernatant, followed by 1 μl of pepsin stock, to achieve final concentration of pepsin as indicated in the text. After 15 min of digestion at room temperature, reaction was stopped with 4 μl of 1 M Tris base and 40 μl of reducing Laemmli buffer. For collagenase digestion, 1 μl of 4 U/ml bacterial collagenase and 1 μl of protease inhibitor cocktail (Sigma) were added to 40 μl of sample and digestion performed at room temperature for 30 min. The bacterial collagenase was highly purified and had minimal clostripain and neutral protease activity, as tested by the manufacturer, according to the product information sheet.
# To test effects of rhPARC on collagen protein production by lung and dermal fibroblast cell lines, fibroblast cultures were incubated for 48 h with or without 30 ng/ml and 300 ng/ml rhPARC in the low-serum cell culture medium containing 14Cproline for metabolic labeling of collagen. Fibroblast culture supernatants contained two 14C-proline containing bands in gel electrophoresis under reducing conditions (FIGS. 13A and 13B). Digestion with chromatographically pure bacterial collagenase in the presence of protease inhibitors eliminated the bands completely (FIG. 13A). To confirm the identity of these bands, we conducted Western blotting experiments in reducing conditions of fibroblast culture supernatants using an anti-collagen type I antibody, that recognizes α1(I) collagen but not other collagen chains. Digestion with pepsin caused expected decrease in the apparent molecular weight of the immunoreactive collagen from ˜175 kD to ˜125 kD (FIG. 13C).
# Sp1 [1] = test: Sp1 immunoprecipitation and anti-phosphoserine Western blot; type: cell-based, human; conditions: fibroblasts activated with rhPARC up to 24 hours
# Procedure: To determine if PARC stimulated phosphorylation of Sp1 and Smad3, these factors were immunoprecipitated from lysates of fibroblasts that had been activated with recombinant human PARC for up to 24 hours, and the levels of their phosphorylation were tested in Western blotting assays using anti-phosphoserine and anti-phospho-Smad2/3 antibodies. Equal loading was controlled by stripping the membranes and re-developing them with anti-Sp1, anti-Smad3 and anti-Smad2/3 antibodies (FIG. 17).
# Preparation of fibroblast lysates, immunoprecipitation of Sp1 and Smad2/3, normalization of protein concentration in the samples with BioRad assays, electrophoretic separation, Western blotting, membrane stripping and re-development with different antibodies were performed as described in Atamas et al. (Am. J. Respir. Cell. Mol., 29:743-749 (2003); J. Immunol. 168: 1139-1145 (2002); and Arthritis Rheum., 42:1168-1178 (1999)), which are hereby incorporated by reference. Rabbit antibodies for total Smad2/3 and Sp1 were from Upstate (Waltham, Masss.). Antiphospho-Smad2/3 antibody and goat antibody for total Smad3 were from Santa Cruz Biotechnology (Santa Cruz, Calif.), as was anti-gp130 antibody used to confirm equal loading of the samples. Antiphosphoserine antibody was from Biomol (Plymouth Meeting, Pa.).
# Sp1 [2] = test: EMSA of nuclear lysates with Sp1-specific probe; type: cell-based, human; conditions: consensus and collagen α2(I) promoter-specific probes
# Procedure: NushifTM kits for EMSA and supershift assays and reagents for preparation of nuclear extracts were purchased from Active Motif (Carlsbad, Calif.); the procedures were performed according to manufacturer's recommendations, including end-labeling of the specific probes with [γ-^32P]ATP. In addition to the [γ-^32P]ATP-labeled Sp1 consensus probe ([NT] ID NO:5), wild-type and mutant ([NT] ID NO:6) oligo competitors, and an Sp1-specific antibody from the kit, an oligonucleotide representing the Sp1-binding region in the α2(I) collagen promoter ([NT] ID NO:7) was used as a probe (after end-labeling with [γ-^32P]ATP) and as a cold competitor. […] Nuclear extracts were adjusted for total protein content to ensure equal loading. Gels were exposed to a Phosphorimager screen and scanned using a Storm Phosphorimager (Molecular Dynamics); band densities were analyzed with ImageQuant software.
# mouse fibroblasts = test: Collagen Western blot in wild-type and Smad3-/- mouse fibroblasts; type: cell-based
# Procedure: Collagen was quantified by Western blotting and the identity of collagen bands was confirmed by sensitivity to pepsin and collagenase digestion as described elsewhere in Atamas et al. (Am. J. Respir. Cell. Mol., 29:743-749 (2003)). In these assays, pro-collagen appears as a single or double band with a molecular weight of approximately 175 kDa (4,27,28).
# Transient transfection with 1 μg of Sp1 and Smad3 dominant negative mutant constructs abrogated basal and PARC-stimulated upregulation of collagen production, whereas transfection with 0.2 μg of the constructs inhibited the response to PARC stimulation but not basal collagen production (FIG. 19A,B).
molecule,measurement,setting,value
B1,average increase in the density of collagen bands,"lung fibroblasts; 48 h, 300 ng/ml rhPARC, responding lung and dermal lines",3.4±0.9 fold
same,increase of fibroblast production of collagen over control,"lung fibroblasts; 48 h, five out of seven tested lung and dermal fibroblast lines",more than 3 fold
same,"combined density of procollagen bands, fold higher than non-stimulated control","lung fibroblasts; LF1 cells, 300 ng/ml rhPARC, 48 h",3.4 fold
same,"combined density of procollagen bands, fold higher than non-stimulated control","lung fibroblasts; LF2 cells, 30 ng/ml rhPARC, 48 h",2.7 fold
same,"combined density of procollagen bands, fold higher than non-stimulated control","lung fibroblasts; LF2 cells, 300 ng/ml rhPARC, 48 h",4.4 fold
same,response of collagen production in one lung and one dermal fibroblast line,"lung fibroblasts; up to 72 h, rhPARC up to 1,000 ng/ml",non-responsive
same,level of Sp1 phosphorylation,Sp1 [1],consistently increased
same,DNA binding by Sp1 (EMSA),Sp1 [2],three-fold increase; also recorded: activates transcription factor Sp1
same,collagen production response to PARC stimulation,mouse fibroblasts; Smad3-/- mouse fibroblasts,did not
same,collagen production response to PARC stimulation,mouse fibroblasts; wild-type mouse fibroblasts,responded to PARC stimulation by upregulating collagen production
